Reference: the domain aggregation screens of Martell et al. (2025)

Assay: soluble fraction after stress (log2 fold change); higher = more stays soluble; pooled small domains, quantitative proteomics
Conditions: stress: 50 degC
How it was run: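 Custom libraries of small protein domains were pooled and measured in a high-throughput format, with quantitative proteomics as the read-out. Each library was stressed at 50°C. The value is the log2 fold change in the amount of each protein that stays soluble after stress, used as a measure of aggregation propensity; higher values mean more of the protein stays soluble.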

Row | Sequence | soluble fraction (log2)
1 | HMTIGIGKSLDFNTSGEKAYRIYNFKGAYVGTFKASDMTSLKNEVQKSNVKAGAYMVRSLDGHVNRLIEIK | -0.681
2 | HMDLPATVPNLEGLTEVTARNKLTVAGLSLGEVKEVESDKEKGTVVGQSIAYGKRVTKGTKVDIEISSGK | 0.0361
3 | HMRSKTSYAVWTPIQIDAGSQMQALQSKGFNTVLMEGGISVGIRSDKAQAQALLNRLQGAGFTGQLREVN | -0.183
4 | HMRKKTYEIITDDLRRMIEAGLIRPGEKLGAIDQLAAKYRVGRSTVREALSHLKALGLVESRQGGGTYVTK | 0.156
5 | HMEVVELTDDEKMILATLHDGPVEIGHIKQVVGLSGKKWDAATKSLRQKGLINVVLENEQKLMVK | 0.422
6 | HMDIKKHISATLKREMEKRGLNFMEFSTELGIPRTTLQGYLKGTSSPQADSLEELADKLGISPAELVSG | 0.15
7 | HMGTPSAEELAFSAQKGNAVMRIMEIREKYIENGGQISDEERNEIERLIAIYYPKASIFDYLPMMG | -0.136
8 | HMKNLNVIDLSALRTLELKESSDWTLIQKRFKLLVKKYHPDMNAGSKQYEEKLKKITLAYTHLKKLF | -2.42
9 | HMLDIQKKGENIAYIEGAGDVIPESLKQIGYHVVTIAPKDINAETLSRFDAVVVGIRAYNTVEDL | -0.244
10 | HMEDPAVYYKILQIPPDASLSEIHRAFEKITSAWDPERYPHISSWKETSAKKLQEIRNAYEKLLILRETG | -0.0409
11 | HMKSYTYNPNYLSDYNAYRLGIPLEALERLQLHRSTGRYVNSLSDFQSVTGISDSLKHSLSSSLRFPN | -0.876
12 | HMGGASVTDQQIRDFVSAHTDDPMAIYKAAVANGISSARLAQVTGISIADIEAFVRKNNLPSF | 0.0932
13 | HMGTPEQVVVSSVLKETNEIVLKWPADGFMAKYKMDNLNLNFEPVHGQGVMGYFIGSRLIKLELV | -0.251
14 | HMGAVGISQKVTSLETAVLGKNFAKDPLIDRVARLEQTVLPKQAEANASLSLPERVSKLLEKVPIAAG | 0.223
15 | HMDFGHWAAHKLEQMSEYRLRHGEAVAIGIALDVLYSVRQGLLARPAAERILSLLERLGFTLFDPELKS | -0.213
16 | HMKPLAQQVNDYLAATRTSIATLANEIPGYSRPTISRYLAGKYDGDITTIEKLLAEWLAQRTG | -0.354
17 | HMLTKGDRQSIRDSIIYMVGNAPRTLDYIVAESRYSEEDVIEAVRSLLSSHILSIDDSDMISLTRK | -0.448
18 | HMITKENYLEKIKEIKVNEFPASMRELYDFFNEATRNGTDWSAYEEGNVKYVVDAYLERLNLLYKSN | -0.175
19 | HMPKTLTEAAYEDIKQWILEGEITPGSKISLEDTASRLEVSMTPIREALTKLQQEGLVEYIPRAGWRASK | 0.173
20 | HMSRVFSPSELEIRHAQDVFQALEEAKRQGKGAVSLNGKMIDAPIVARAKLVLEAAAAIYGED | -0.362
21 | HMHSEEAALLHRYIDSLEEPQHTVVVMRDIGGYSFEEIASVVQLKEAHIWMILSRARRKLRELYIKTMDHH | 0.138
22 | HMAFDDAHYKDMITSYLKKFKKGNRSEIENLIIPKLSEVLVEKQKKDKVKNLLQALRKDNQIRLKGKYWYL | 0.135
23 | HMEKKGTVVIATVKGDIHDIGKNIVKVLLENYGFDVIDLGKDVPPEAVVEAVQQSGARLVGLSALM | -0.594
24 | HMAAVSTDEEFAALGIPAEWIPVLKSNGFQTVESLKKVAPGALFNQLGGLRKKNKLEIAMPSLDQVKAWLA | 0.115
25 | HMADFYEVLGVERNASSDQIKRAYRKLARELHPDVNLDPVAQNRFKEVTEAYEVLSDPNKRSNFDRG | 0.209

Row | Sequence | soluble fraction (log2)
26 | HMGNGDTNERIATLMQILAKQESIINQYGLENPVVSPQMYVRTLKKVVELSGFKDASSYFADIPDGWKA | -0.00533
27 | HMFDLKKIYGTILDETKSSLLLSTDDGREVQIIKTDGTEVLASGLGVYVEVAYRDETPDGYPIALTI | -0.193
28 | HMENLRLSELTVERGHRLAGRTLADIASAPNSPKYLIVLIQRGQETVIPTGSTVILPGDVLILAQS | -0.605
29 | HMSKISKENEQQVIQIVQTLLLNVQDKSLITTQILNEKINLAVSLDTKYKENLDRDYIIEELIRRYSVW | -1.12
30 | HMQWLDSIRSRLRVGQTISYFEPRENASSSGLIIELRRKRVLVLEIATQKRWLIEYAAINVDG | -0.373
31 | HMDKWFPVSSDHKVQVGDYLRTADGLVKVEATHNEYGTFYGKIITAIHDDVVKGETYEYRIDDVQVLA | -0.0324
32 | HMFAKVEGITGDILDKLQQQRGFLALSDKSSPEAIYDTFGVSKKVFKQAIGTLFKQQKISIEAEGIRLV | -0.709
33 | HMGHKKLTIELQDEIIVLPKELEKYNLTVSDDKTSLIYTYKSRGEKTGITDLLRDIKDAGLRLKDLITEQ | 0.434
34 | HMFSLDMDRLVRPGFMASGNVTFSDGVTGKWALDQMGRLALETAQKGYQPSPADVQAFQRELQQQLQRQG | -0.0885
35 | HMLQKVELSDNEKFIFDSLQKEQKMALLRLKELVNLSNKAWDVSVKNLTKQGLVKVTKIDEELLIEI | -0.949
36 | HMQWGKVRRLPSGRYQASYVHKGTRYTAPETYTVQGRAHGWIESERRLIVTDTWTPPDTRPS | -1.78
37 | HMNNDFVERLRKLFGHASMAEIARRIDVPHATIRNYFQGRLPAPEVLIKLARETGVSLNWLLTGEGKMFA | -0.253
38 | HMELLSVPSRLGTFFLGGEAGHIIRLYLPGDPTPRIAEHETPVLSEARRQLLEYLAGRRTAFSFPL | -0.139
39 | HMLSTGQLIRYYRKRAGMTQAELAEEVEMSEPGIRNYELGNRTPSKAQLSAIARGLGIEPEALI | -0.48
40 | HMGRTGTVVVSPSLNVRTGPWGEIIGSLYNGNKVEIIGSSGDWYQISFGGKTAYVHSDYVVDGG | -0.51
41 | HMSSQVFLGQKNSIAKYDLNENKPIWTKEIKGTPLILSTWKDMLLIQIQTWVSYTHMLVKQENGQTVWE | 0.318
42 | HMSEIKDRLREARRNKGLSQAGLSKLLGVSQASIAAIESGRNKRPTNLVSIAKALDVSPYWLETGK | -0.124
43 | HMRTANREKRIEASVKMMKAGYPVGYIIARVFMYEGWEEDYRQLLIYLSEKIPKDVSNPITFEVIS | -0.296
44 | HMSLPNNLIEQLQDPEPKARRRAVRRLAATRDPSAIPLLRNVYLQDGDDRVRDAAEAALVQFRAMQHN | 0.0586
45 | HMGDLVFDFVHGVHKAAEVEKELVMQALRFTHGNVSRAARLIGMQRSSLRYRIERYRLDAFVMEVAN | 0.3
46 | HMSFNISPTKKLILELIMNGTAAVEAIAVKAGISKGMAYNHLRELRSMGYITDEGGYKITDSGRLAV | -0.414
47 | HMDKSFYETFEKIGHGDFDKGLNHVWQHANDGNGTATLLLSKLFLEFGDLDNFEKYLNISAEQSNPVAMKI | -0.305
48 | HMKKTTEFAVTPEFQQRLEASPELKAAFQALTPGRQRAHLLFFAAPKQAQTRQARIEKSLPQIMAGKGLN | -0.184
49 | HMKINKQHLAFQIFGIRAKLGLSMEQFGELLGANKSSVSGWERGTVVPSSQRLKKIAELGKISLAELLTP | -1.23
50 | HMNEDDQLLKVLLAEPLRLEELYNLDLKPQGPYNLQTWIMVHLTELERDGLIARFPDGRYGPAR | -1.36

Row | Sequence | soluble fraction (log2)
51 | HMKYSYAELTKLQEQIAQDRNAPLTVPNALGIGLDERNNVIEITVNIADEAAAKAYYLQKYGDRISLKTTD | 0.117
52 | HMNSNKFANAAAVAVAEKPADSYNPLFIYGPSGVGKTHLLYAIANEIHKHHPDYNIVYIKGDQFTNELIN | -0.0439
53 | HMQASISVDEAKSIALNYAKFTADQVVYTKSELDYDDGRAEYEIEFYAGGKEYSFTIDAVSGTVLEMEI | -1.7
54 | HMQSVPELDQQFKIAIENNDFIKLAQLKEQGYHPSKEVMQSLSNTTPNNTIIAVQKIFGLKA | 0.231
55 | HMKKQLTISDGDWAGKVSSMLEDMGVINSASEFDKYLSDNGYSNVIKSGTYDVSPEDTFQELAEKIT | 0.414
56 | HMETPDLTQLNPILDEYRGQKGAVIPVLQKAQKIYGFLPPEVLRRIAAGMRVPLSKIYGVATFYSQFY | 0.0579
57 | HMATKVSSGATVRDVADLLGLSSAELIKKLMMMGEMATLTQTLTDESIKSIADEYDRKIEIVSAAE | 0.0948
58 | HMAKPVNISAEPYHYDPTRFRVTFELPRLSDQPRKRIRKVAPAGLDREQALAWAKRLEREVLHELLR | -0.494
59 | HMFSSVSVPAELSNQRFDKVVAELTPDLSRSKIKQLILLGKVLLNGEVTPPKQKVETGDEIEIFYTRQIE | -0.63
60 | HMALALDDLFDRYEQLQDQSLGDKTEEGQELRAMIRAYIEQEGLSVRVTRSTTNRELLELIEQEMEG | -0.174
61 | HMGPRPLPAEFTHPSLRALLALGTTRGGVTSADVKTALEAASVPAGRRAAVLRALDDNGIEVHTEP | 0.0376
62 | HMNVSDIENKLNEMLSPLEKKVMVLYLEGKSYVEIGELLGRHTKSVDNALQRVKRKLEIYLKNRK | -1.22
63 | HMNVDALVGQRGRVTQTFDPGLRLGRVAVGGDDWRAETTTDQPLREGDLVEVVSVESNTLIVRPIA | -0.0828
64 | HMVPTVSVDRDDTLRFEGRPVDWDVLKRELGAVAGIDELKIYADAKVSALTVSKIMKSASEAGVLQFILVT | -0.188
65 | HMVLSVRDRMVQILDQVKTGEYKRIEDFFSADEGRTGFVVSFVAILELVKGGLLTITQSKNLAPIYVRLPN | -0.19
66 | HMIGDNNELFQKAQLTPREKEVALLLLQGETNSDIAKILYVGLSTVKKHISSIFEKTKVKSRTEFISKVR | -0.803
67 | HMVKIVWSKEGPYVGTRVRRYFSQGPVDGTVVMYAKPQKGDDVALWRISHDDGDEEDLEEQELRLAID | -1.65
68 | HMELEQLKSQLTGFLKANREQIFTAQNLADGLRMTDSQGYKQVVNALNASVRDGDVIDIKNGYQYNKN | 0.0729
69 | HMNDNQNKQMLWELLKDNRAFDNFDNKDYKTIIHLFNETVNTIDHRTPNLDLIKKNKIFIQDIMQKLSNL | -1.13
70 | HMKNISSEEDREKALSLGITQEFIDNKGRYFITVPNKPSNFKEQALNIQKEISEQIDTVINKRFEF | -0.0173
71 | HMVPEETKQFINQLNHGSLSIRMNAANNLEKLGLLAIPEIEAALPKAHGEAAFRLPRLLHALVLRETEYF | -0.00885
72 | HMKGRPTTAIITDERTNLRSGPGATNKTIAQAGAGEKLAIIDEKDGWYQVSRAGINGWVAGWVIDVAW | -0.441
73 | HMREFQVMKQELQEMVHQRLDMSTELSDEAIGDVIDEVIMEKSRNMYISSVTKLTLRQELFNAIR | -0.629
74 | HMTTETGTVKWFNEGKGFGFIAPDGGGKDLFAHFKEIQGSGFKTLTENQRVQFEVTQGQKGPQASNIRTL | 0.243
75 | HMAQRFDLGDKLNPQSSEFEYLGTSSRTGVSTYRYKNVPTQLFFGRQIGDIVVGVRRGMITLTIYNL | -0.0451
